Measurements reported in article PMC12045373.

Molecular target: human c-type lysozyme purified from human neutrophils (HL) (human) (UniProt P61626)
Chain of UniProt P61626 (P61626 19-148): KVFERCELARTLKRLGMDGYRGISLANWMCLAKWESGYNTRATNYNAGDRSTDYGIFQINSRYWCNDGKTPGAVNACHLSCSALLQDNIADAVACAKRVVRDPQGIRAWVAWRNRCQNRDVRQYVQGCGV

**Q.** For “recombinant, mature Neisseria gonorrhoeae Adhesin Complex Protein (rACP) (natural protein)”, which percent of HL hydrolytic activity restored in the presence of rACP by pooled terminal RO serum (polyclonal) of mice immunized with rACP alone is on record?
**A.** 19.3%

**Q.** What about the percent of HL hydrolytic activity restored in the presence of rACP by pooled terminal RO serum (polyclonal) of mice immunized with rACP+CpG of the same substance?
**A.** 59.9%

**Q.** And the percent of HL hydrolytic activity restored in the presence of rACP by pooled terminal SV serum (polyclonal) of mice immunized with rACP alone?
**A.** 30.1%

**Q.** What about the percent of HL hydrolytic activity restored in the presence of rACP by pooled terminal SV serum (polyclonal) of mice immunized with rACP+CpG of the same substance?
**A.** 75.2%
